# Measurements taken from publication PMC11221535.
# Tests used:
# Assay in all cases: ITC
# [1] = molecular target: TobE N-terminal docking domain (TobE ^NDD) (Methylorubrum extorquens AM1)
# [2] = molecular target: TobE ^NDD-ACP didomain (Methylorubrum extorquens AM1)
# [3] = molecular target: TobC C-terminal docking domain (TobC ^CDD) (Methylorubrum extorquens AM1)
Substance,Kd [1] [µM],stoichiometry N [1],Kd [2] [µM],Kd [3] [µM],stoichiometry N [3]
TobC C-terminal docking domain (TobC ^CDD) (domain or fragment),4,0.8,5.7,,
TobC ^CDD R2271A (domain or fragment),769,,,,
TobE N-terminal docking domain (TobE ^NDD) (domain or fragment),,,,3.2,1
